From the DeepSol protein solubility set

Assay: soluble on expression in E. coli; label from the status in PepcDB or PDB records

Sequence	soluble on expression in E. coli
MSIIIENSGLFSSFQDFGRKGYEHEGVIPSGALDELAHEIANRLVANDKNEATLEMTQKMATIRFTEPALIALTGGNFKAETEHMKIYPNKLYLINEGETLKFNETSRTSRVYLAVGGGFKLEKWLHSASTDFNVEIGGFEGRKLKKGDEIELKHHYSQRHLKLFENLSDKRTTDWGIDGYALSFNYVSDVFHVIKNKGTEDFKKEATRRFTTAEYSVSSKTNRVGMVLDGPQIKAYYDDMPAHQSVKRGTIQVKRDGTPIVLLNDHYTLGSYPQIGTIASYHLTKLAQKPQGSKLKFQFIDIETAEKNLIKYSNWLNQLFHGIEHRMQLEMLKMAGDPLEHHHHHH	not soluble
MLTIAMPKGRIFEEAVELLRRGDYALPPEFTESRKLVIDVPEENMRFILAKPMDVVTYVEHGVADLGIAGKDVLMEEERDVYELLDLQISRCHLAVAGLPGAKMNEIAPRVATKYPNIASTYFREQGEQVEIIRLNGSIELAPLIGLADRIVDIVSTGRTLRENGLVELERIAEVTSRLIVNPASYRLNGGDIERLVDRLAAVIPQP	not soluble
MVQEQMKLTGTLEGHTGWVTQIATYTRNDKTTVLSSSRDKTILVWDVDSVAPVDEGPIGRPVRSLTGHNHFVSDVVISSDGQFALSGSWDKTLRLWDLNQGVSTRQFISHTKDVLSVAFSADNRQIVSGSRDKSIKLWNTLAQCKYTITDDCHTDWVSTVRFSPSNRDPVIVSAGWDKVVKVWNLGNCRLKTNHIGHTGYVNTVTVSPDGSLCASGGKDGQAMLWDLNEGKHLYTLPGNDVINAMSFSPNRYWLCAAVGSSIKIWDLEDKKEIEELKPEIASSGSSRGSSPQCISLAWSQDGQTLFAGYTDNIIRVYQVSIRASN	not soluble
MHHHHHHSSGRENLYFQGDLQATPGMFITSKKGHLSEMYQRVKKLGSGAYGEVLLCRDKVTHVERAIKIIRKTSVSTSSNSKLLEEVAVLKLLDHPNIMKLYDFFEDKRNYYLVMECYKGGELFDEIIHRMKFNEVDAAVIIKQVLSGVTYLHKHNIVHRDLKPENLLLESKEKDALIKIVDFGLSAVFENQKKMKERLGTAYYIAPEVLRKKYDEKCDVWSIGVILFILLAGYPPFGGQTDQEILRKVEKGKYTFDSPEWKNVSEGAKDLIKQMLQFDSQRRISAQQALEHPWIKEMCSKKESGIELPSLANAIENMRKFQNSQKLAQAALLYMASKLTSQEETKELTDIFRHIDKNGDGQLDRQELIDGYSKLSGEEVAVFDLPQIESEVDAILGAADFDRNGYIDYSEFVTVAMDRKSLLSKDKLESAFQKFDQDGNGKISVDELASVFGLDHLESKTWKEMISGIDSNNDGDVDFEEFCKMIQKLCSNNE	soluble
SLPEKVLVAGNNVRNVAESASKAGFEVFAITKFVDADLRIYCREVERVDDSLPEKEIAKKIEDKAEEIDAKVVLCSGFETLRVRGELLCNPYGKVERVANKLKFYRELEKAGLPFPELLGEGERGIIKPVVGGGGEEVVMGEEVPKGFLKQRFVSGTPCSVSVIANGERALPLACNLIYAGWKEMNASGFRYSGNMTPFIVEEEIRKELERLAVEAVELFGLAGSVGVDFVLAEKPYILEINPRFQGSLDSVEWSCDVNLFKMHAEAFDGRLPERVRPRRYALRAILFSPRDVEIKENLAGNPFYADVPGKGERYGKNDPLVSILAAGKSREDVERRVLERRDLFLSLA	not soluble
MGSDKIHHHHHHMNNLIVTPGYASQFSCIGSACEDSCCHDWTIIFDKKSYKNTLNHPKLASLAKEAFIETKTDANQWAQIKLNANGTCPFVNEQQLCAIHAAAGETALSHTCKTYPRINNVIATTKYESLSLSCPEAARLVLFDANAFQFEAKSGGAKRPTAANPAWLEKTYDYSLDLLINMGVDWQQALMAIGLLVKVSDQVRQNALPIAQIDQRFEQLILLAQTKEITAQYQKIPYTPQPQTHAFVSIHDQLCKLHSRSLKPRFTSLNEAIGLLCNEGNQYQIDHLNKAWEEKALPALSNYQDLFDRYILYSLYHEHFPMIHSQQPWMAFRLLVIDCFMIRCYLSAMAFKNNGLTESDIVLCFQLYSVVRQHKAKFAEGINQTLQECGIDSIPAAISLLKTS	not soluble
MLGAMFRAGTPMPPNLNSQGGGHYFIDRDGKAFRHILNFLRLGRLDLPRGYGETALLRAEADFYQIRPLLDALRELEASQGTPAPTAALLHADVDVSPRLVHFSARRGPHHYELSSVQVDTFRANLFCTDSECLGALRARFGVASGDRAEGSPHFHLEWAPRPVELPEVEYGRLGLQPLWTGGPGERREVVGTPSFLEEVLRVALEHGFRLDSVFPDPEDLLNSRSLRFVRH	soluble
MGSDKIHHHHHHAQQSSGDYYEGLSRKIGFSQMIPPHGLEITYDKTVHIIFPSPVRYVDLGSPNLIAGKADGAENVIRVKATRKHFRSETNMSVITEDGNFYTFNVKYADEPLLLNVEMCDFIHDGESVNHPNNAMEIYLQELAGESPRLVRLIMKSVYMQDKRKVKHVGSKRFGVQYLLKGLYAHGELLYFHTEVKNATHVPFDVDFVTFKIVDKKIVKRTAMQEQVIYPLRAFNYVTRVDGKKNERTVFALPKFTIPDGKKLVVEMYEKQGGRHQSFEVENEDLVRAGTVNELKVR	not soluble
MSLTSQKTQLEPLGIVRIEGLHYYVHDLERSRRFYAQKLDFAEVARSTPALEREGRQRSAVFEAGGVRVVCSEPVGQGGRAWRWLRKHPDGVGTVVLEVEDAERAFRLLEERGGTPITDVQEHRDDGGTLRTFSITTPLGDTTFRFVERRGFRAVYPGIEPLAAPEGGRNAFGFGHVDHLTNNFQTMKPALLWMEHVMGMEEFWEVEFHTKDAAGARRAAIEAQKGSGLRSVVMRDPRSGVKFANNEPRRPAFKSSQINLFNEDLRGDGVQHAALTVQDILSSVRGMRARGVEFMPTPAAYYEALPERIRSTGIGRIDEDPRVLQELEILVDGAGDHSYLLQIFLRESAGLYHDPDAGPFFFEIIQRKGDQGFGAGNFRALFESIEREQVREGREGHHHHHH	soluble
PGVGDYKGLLKWTSHNQYEKEVKKADEQYGKLYAKFADMPIEKVAKDPQAKQIAQNLFNTYCIQCHGSDAKGSKGFPNLTDSDWLWGGDPDKIHETIEKGRVATMPAWGPALGEEGVKDVAHYVMSLSKPEGQYDEERAARGQALFSGPPANCFTCHGDKGQGIQGLGPNLTDDVWLWGGTQKSIIETITNGRSSQMPAWGHFLDKDKLHIMTAYVWGLSDKDGKAPVKKAEPAPTPAPAAEPAASAPAEAAQAVSEAKPAAAEPKAEEKAAPAAKADGK	not soluble
MILEKAREILEEHQLCNHCLGRLFGKLGKGTNEERGRAIRLLLSMETGKEYKEPEKCELCGGVFNNLDKFAELCIKAAEGIEFETFWVGSRFPEEIEKKEEEIWRKFRVVSGEKITKEFNRELGKVIAVRYGKTPVKERPDVVFIVEPFSEKVELQVNPIYVAGRYRKLIRGIPQTPAPGFKESIATIICRAFKKHFHGKCIFKGAGREDVDVRMLGNGRPFVVEIKRPRKRKVNLKDIEEEINQSGKVEVLNLRFITPEEAERILTTRHRKVYEAIVYVKDGITKEEVEKVVKSLKNAEIKQRTPRRVLNSRADLVRVRKVYDVKGELIDDKHFKLRLVTDGGLYIKELISGDRGRTTPSVSEILGKEAWCEILDVLEVLDDVEGDNLEHHHHHH	not soluble
MGSDKIHHHHHHLDELRSGLDKPSHFRLGLAMWSHSNWQESVYGHGIKQAERLARYATIFNTVEGNTSFYATPAQQTVMNWHSATPDDFRFTFKLPQTITHQRLLQHCGQELKDFFQVMAPLIDKTGIWKIQLPAHFGPENLPVLAQFLNQVPQGLTYGVEVRHAAFFAKGDAERALNRLLIDKKVNRIIMDSRPLFALPPSNAAIIDAHKKKPRVPVHAIATANNPVVRFIGQPDDAVAQLAQQGVSALPKNNDAFFDNWLAQLPLWLAEGREPYLFIHTPDNETAPELAIRLYQTLRSQIAAQIQLAELSLLEKIPEETSTQMGLAW	not soluble
MGDTTFLIEFDHPAAVYSPGQNVAGKLTIRNRNALNALALKICIHGDIETLWRKFENKGRYDRHGRWYRSSEHINYTSKINVLEGIAQPWSSIENANNKIPGGVNIFPFLFQLPANLPPSFEGTHGNVRYSVHVELDRPWRMNVEAKRVFSVIPVIDLNSIPKTINPMIVSSCKHSGLFSNKEVKVKISIPKSGYIPGETIQVSALIQNHTKKPIYSIKAKLEQHVHYQAQQENSHLFPEEHCHKHCEHKTAQTTMSKVEKSCHVEFCSNSQINVPLVLPNQLVPSFRTGIIEVDYCIIVDIGENKKLRCELPITVGTIPIGVFTRPIAYSITEAPPKYENFSQIVEDSQASAPPPEYENEEHF	not soluble
SPLHWLQWERGGVGSDQDLGCHWLPLPTGSDGGDAVEYNPNLLDDPQWPCGKHKRVLIFASYMTTVIEYVKPADLKKDMNETFREKFPHIKLTLSKIRSLKREMRNLSEECSLEPVTVSMAYVYFEKLVLQGKLNKQNRKLCAGACVLLAAKISSDLRKSEVKQLIDKLEERFRFNRKDLIGFEFTVLVALELALYLPENQVLPHYRRLTQQF	not soluble
MGHHHHHHSHMREPWLFGEEHTRLIREAIRERYGLLPYWYSLFYHAHVASQPVMRPLWVEFPDELKTFDMEDEYMLGSALLVHPVTEPKATTVDVFLPGSNEVWYDYKTFAHWEGGCTVKIPVALDTIPVFQRGGSVIPIKTTV	soluble
MTDKTIAFSLLDLAPIPEGSSAREAFSHSLDLARLAEKRGYHRYWLAEHHNMTGIASAATSVLIGYLAANTTTLHLGSGGVMLPNHSPLVIAEQFGTLNTLYPGRIDLGLGRAPGSDQRTMMALRRHMSGDIDNFPRDVAELVDWFDARDPNPHVRPVPGYGEKIPVWLLGSSLYSAQLAAQLGLPFAFASHFAPDMLFQALHLYRSNFKPSARLEKPYAMVCINIIAADSNRDAEFLFTSMQQAFVKLRRGETGQLPPPIQNMDQFWSPSEQYGVQQALSMSLVGDKAKVRHGLQSILRETDADEIMVNGQIFDHQARLHSFELAMDVKEELLG	soluble
MGSDKIHHHHHHMKTARLIYNPTSGREQIRKSLAYILERLELAGYETSTHATTGEGSATEAARLAGERRHDLVIAAGGDGTIYEVVNGLAGLEKRPTLGLIPAGTTNDFARALNIPRDIEKACDILIEGHTKPVDVGKAGDHYFINIAAGGTLTELTYEVPSKLKTVVGQLAYYIKGLEKLPQISPTDVRIEYDGKLFEGEIMMFLVSNTNSVGGFERLAPNASLRDGMFDFIIVKKTSFPEFLHLAGLALRGEHIKHPKVLYVQANRIKVQAEKSMQLNFDGEYGGLLPAEFVNLYQHFQMLCPKD	not soluble
MGSDKIHHHHHHMLNWSHLPAIKPKYLAITQFIKQAIQNGDLLPGQRLPAERELATLLHVDRSTVTRALLDLAAVGILVKKRGSGTFVAQLPHVNQLANKVNWQAFLENTTATRHATYQRKLAKARTTATVPLIDAAANELPTNLIPQLGTLTLDWQGFLTAQQQEERTGYLPLMQTINRYHTARQQFTLDRQSLIITGGAQQALLLILNSLLQPGDAVAFVTPSYFSASAVFSAAGVRAYTIPTTTLGLDLTALETAIIKHRIKLLILNPTLQNPTGRILPLAERQAILALCQRYQVAIVEDDVFGWLVDRDIAVPPFKALAPDNVIYISSLSKLLGSNTRIGWIVAPQAIGERIRQVQKNLDLVPSLLAQVMVDHALNSPEFSLGVTQLTTQLAQRRQNVTAILRQLRPDWHFVTPLGGFYLWVTQADRNVFEHLLEQHLLVTPGPIYGADRSAFRFNFAGLDYRQQRLLIQRLS	not soluble
MAHHHHHHMQGTGAVSASHCTFNQRSGVSKKEELGDAMKVDNVFPGGPKKDVLVSCANKSRQTAAGIFVHWCCRCESETSGDRGNVCEFFGDCECDDIYSTSNVPKCVKGDHMWRDSSTALRAVLQDVKGRDACNISTPNGKEILMKLTREELTSNIAPQDSSSKIFLFLLAALLMQDESVAQTSN	not soluble
